{
  "source": "patent US6586946B2",
  "about": "“System and method for detecting and identifying molecular events in a test sample using a resonant test structure” (Signature BioScience, Inc., priority 2000, dated 2003)",
  "molecules": {"B1": {"name": "turkey lysozyme (protein, UniProt P00703 19-147, looked up)", "Lysozyme C": "KVYGRCELAAAMKRLGLDNYRGYSLGNWVCAAKFESNFNTHATNRNTDGSTDYGILQINSRWWCNDGRTPGSKNLCNIPCSALLSSDITASVNCAKKIASGGNGMNAWVAWRNRCKGTDVHAWIRGCRL", "notes": "test protein"}},
  "data": [
    {"test": "Resonant frequency shift of coaxial resonator coupled to protein solution versus PBS buffer (S11 return loss)", "type": "physicochemical", "settings": "protein solution in PTFE tube; reference PBS pH 7.4; input test signal approximately 1 GHz, 100 KHz band", "experimental": "Using the systems and methods of the present invention, several experiments were performed to detect and identify molecular events in a solution. […] The vector network analyzer used was model number HP 8714 manufactured by Agilent Technologies, Inc. (Palo Alto, Calif.) The computer is an HP Vectra computer (Hewlett Packard Company, Palo Alto, Calif.) executing a graphically user interface (LabView® platform) to control the operation of the network analyzer and to display the resulting data. The coaxial resonator 122 illustrated in FIG. 3A was used in the experiments to illuminate the reference and test samples. […] The PTFE tube 470 is used to transport the reference and test samples to the detection region of the resonant test assembly and measures 0.031″ I.D., 0.063″ O.D., wall 0.016″ in cross-section dimensions.\nThe proteins used for the experiment included bovine serum albumin (BSA), ribonuclease (rnase), urease, myoglobin, fibrinogen (type I-S, bovine), chicken lysozyme (egg white), and turkey lysozyme. Phosphate buffer solution (PBS, pH 7.4) was purchased from Sigma (St. Louis, Mo.) and used as the reference sample.\nIn the reference measurement, PBS buffer was introduced into the tube and transported to the detection region, and a S11 (return loss) measurement of the resonator was taken. In the illustrated example, the measurement was taken at 1 GHz over a 100 KHz band. From the measured S11 response, the resonant frequency fres and Q-factor of the resonator were computed and stored, as described above.\nNext, each of the aforementioned protein solutions were introduced into the tube and transported to the detection region. The resonator's S11 response was measured (over the same frequency range as above) and the corresponding resonant frequency fres and Q-factor parameters derived therefrom. Subsequently, the difference in the resonant frequencies Δfres is computed. This quantity was subsequently plotted versus the resonator's measured Q-factor when electromagnetically coupled to the test sample. FIG. 6 illustrates this mapping.", "values": [
      {"molecule": "chicken lysozyme", "change in resonant frequency of the resonator (relative to the PBS buffer)": "~6.5 KHz"},
      {"molecule": "fibrinogen", "change in resonant frequency of the resonator (relative to the PBS buffer)": "approximately 1.75 KHz"},
      {"molecule": "myoglobin", "change in resonant frequency of the resonator (relative to the PBS buffer)": "~4 KHz"},
      {"molecule": "urease", "change in resonant frequency of the resonator (relative to the PBS buffer)": "~2 KHz"},
      {"molecule": "B1", "change in resonant frequency of the resonator (relative to the PBS buffer)": "~6.75 KHz"}
    ]}
  ]
}
